# In FireProtDB (doi:10.1021/bi002609i):
# Settings: Dictyostelium discoideum, reversible: yes
# [1] = pH 5.59, 20 °C, Thermal, DSC, MES/NaMES 50 mM
# [2] = pH 5.7, 20 °C, Urea, CD, KH2PO4/K2HPO4 50 mM
# [3] = pH 5.7, 20 °C, Urea, CD, MES 50 mM
# [4] = pH 5.7, 20 °C, Urea, Fluorescence, MES 50 mM
# [5] = pH 5.75, 20 °C, Thermal, DSC, MES/NaMES 50 mM
# [6] = pH 5.81, 20 °C, Thermal, DSC, MES/NaMES 50 mM
# [7] = pH 6.03, 20 °C, Thermal, DSC, MES/NaMES 50 mM
# [8] = pH 6.09, 20 °C, Thermal, DSC, MES/NaMES 50 mM
# [9] = pH 6.2, 20 °C, Urea, Fluorescence, MES 50 mM, NaCl 400 mM
# [10] = pH 6.2, 20 °C, Urea, Fluorescence, MES 50 mM
# [11] = pH 6.25, 20 °C, Thermal, DSC, MES/NaMES 50 mM
# [12] = pH 6.7, 20 °C, Urea, CD, KH2PO4/K2HPO4 50 mM
# [13] = pH 6.7, 20 °C, Urea, Fluorescence, KH2PO4/K2HPO4 50 mM
# [14] = pH 7.08, 5 °C, Urea, Fluorescence, KH2PO4/K2HPO4 50 mM
# [15] = pH 7.7, 20 °C, Urea, CD, KH2PO4/K2HPO4 50 mM
# [16] = pH 7.7, 20 °C, Urea, Fluorescence, KH2PO4/K2HPO4 50 mM
# [17] = pH 8.15, 20 °C, Urea, Fluorescence, KH2PO4/K2HPO4 50 mM
# [18] = pH 8.7, 20 °C, Urea, CD, Glycine/sodium glycine 50 mM
# [19] = pH 8.7, 20 °C, Urea, Fluorescence, Glycine/sodium glycine 50 mM
# [20] = pH 9.7, 20 °C, Urea, CD, Glycine/sodium glycine 50 mM
# [21] = pH 9.7, 20 °C, Urea, Fluorescence, Glycine/sodium glycine 50 mM
# Hisactophilin-1 wild type, sequence (P13231 whole entry, looked up): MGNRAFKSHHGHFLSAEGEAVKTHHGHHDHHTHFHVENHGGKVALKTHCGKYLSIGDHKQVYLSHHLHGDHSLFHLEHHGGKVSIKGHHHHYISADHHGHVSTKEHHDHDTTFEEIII
substance,measurement,setting,value
Hisactophilin-1 wild type (from UniProt P13231),heat capacity change of unfolding,[1],2.4 kcal/mol/K
same,unfolding free energy,[1],1.5 kcal/mol
same,Tm,"pH 5.59, Thermal, DSC, MES/NaMES 50 mM",47 °C
same,denaturant m value,[2],2.24 kcal/mol/M
same,denaturant midpoint (higher = more stable),[2],1.02 M
same,unfolding free energy,[2],2.28 kcal/mol
same,denaturant m value,[3],2.19 kcal/mol/M
same,denaturant midpoint (higher = more stable),[3],1.05 M
same,unfolding free energy,[3],2.2 kcal/mol
same,denaturant m value,[4],2.2 kcal/mol/M
same,denaturant midpoint (higher = more stable),[4],0.99 M
same,unfolding free energy,[4],2.18 kcal/mol
same,heat capacity change of unfolding,[5],2.4 kcal/mol/K
same,unfolding free energy,[5],1.4 kcal/mol
same,Tm,"pH 5.75, Thermal, DSC, MES/NaMES 50 mM",48.9 °C
same,heat capacity change of unfolding,[6],2.4 kcal/mol/K
same,unfolding free energy,[6],2.1 kcal/mol
same,Tm,"pH 5.81, Thermal, DSC, MES/NaMES 50 mM",53.6 °C
same,heat capacity change of unfolding,[7],2.4 kcal/mol/K
same,unfolding free energy,[7],2.8 kcal/mol
same,Tm,"pH 6.03, Thermal, DSC, MES/NaMES 50 mM",58.3 °C
same,heat capacity change of unfolding,[8],2.4 kcal/mol/K
same,unfolding free energy,[8],4.1 kcal/mol
same,Tm,"pH 6.09, Thermal, DSC, MES/NaMES 50 mM",58.7 °C
same,denaturant m value,[9],2.56 kcal/mol/M
same,denaturant midpoint (higher = more stable),[9],1.39 M
same,unfolding free energy,[9],3.56 kcal/mol
same,denaturant m value,[10],2.39 kcal/mol/M
same,denaturant midpoint (higher = more stable),[10],2.23 M
same,unfolding free energy,[10],5.33 kcal/mol
same,heat capacity change of unfolding,[11],2.4 kcal/mol/K
same,unfolding free energy,[11],3.8 kcal/mol
same,Tm,"pH 6.25, Thermal, DSC, MES/NaMES 50 mM",61.7 °C
same,denaturant m value,[12],1.63 kcal/mol/M
same,denaturant midpoint (higher = more stable),[12],3.1 M
same,unfolding free energy,[12],5.04 kcal/mol
same,denaturant m value,[13],1.62 kcal/mol/M
same,denaturant midpoint (higher = more stable),[13],3.08 M
same,unfolding free energy,[13],5.1 kcal/mol
same,denaturant m value,[14],1.67 kcal/mol/M
same,denaturant midpoint (higher = more stable),[14],2 M
same,unfolding free energy,[14],3.34 kcal/mol
same,denaturant m value,[15],1.63 kcal/mol/M
same,denaturant midpoint (higher = more stable),[15],4.31 M
same,unfolding free energy,[15],7.11 kcal/mol
same,denaturant m value,[16],1.59 kcal/mol/M
same,denaturant midpoint (higher = more stable),[16],4.26 M
same,unfolding free energy,[16],6.78 kcal/mol
same,denaturant m value,[17],1.65 kcal/mol/M
same,denaturant midpoint (higher = more stable),[17],4.61 M
same,unfolding free energy,[17],7.59 kcal/mol
same,denaturant m value,[18],1.46 kcal/mol/M
same,denaturant midpoint (higher = more stable),[18],5.18 M
same,unfolding free energy,[18],7.55 kcal/mol
same,denaturant m value,[19],1.49 kcal/mol/M
same,denaturant midpoint (higher = more stable),[19],5.19 M
same,unfolding free energy,[19],7.75 kcal/mol
same,denaturant m value,[20],1.53 kcal/mol/M
same,denaturant midpoint (higher = more stable),[20],4.58 M
same,unfolding free energy,[20],7.03 kcal/mol
same,denaturant m value,[21],1.65 kcal/mol/M
same,denaturant midpoint (higher = more stable),[21],4.76 M
same,unfolding free energy,[21],7.85 kcal/mol
